# Data from the supplement of paper PMC5998384.
# Assays:
# HeLa Kyoto [1] = assay: solubility in G1/S (NP-40 vs SDS abundance) (log2 ratio); higher = more soluble; conditions: cell cycle stage: G1/S
# HeLa Kyoto [2] = assay: solubility change mitosis vs G1/S (difference of NP-40 vs SDS log2 ratios) (log2 ratio difference); higher = more soluble in mitosis
# 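For solubility change mitosis vs G1/S (difference of NP-40 vs SDS log2 ratios) in this document: synchronized HeLa Kyoto cells (double thymidine block for G1/S, nocodazole release for mitosis), protein amounts in NP-40 versus SDS lysates quantified by mass spectrometry, three biological replicates.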
# 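For solubility in G1/S (NP-40 vs SDS abundance) in this document: HeLa Kyoto cells arrested at G1/S by double thymidine block, proteins quantified by TMT10plex mass spectrometry in mild NP-40 versus SDS extracts, three biological replicates.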
Substance,solubility in G1/S (log2) (HeLa Kyoto [1]),solubility change mitosis (log2) (HeLa Kyoto [2])
MAGTALKRLMAEYKQLTLNPPEGIVAGPMNEENFFEWEALIMGPEDTCFEFGVFPAILSFPLDYPLSPPKMRFTCEMFHPNIYPDGRVCISILHAPGDDPMGYESSAERWSPVQSVEKILLSVVSMLAEPNDESGANVDASKMWRDDREQFYKIAKQIVQKSLGL [UBE2G2],0.6,0.17
MALDPADQHLRHVEKDVLIPKIMREKAKERCSEQVQDFTKCCKNSGVLMVVKCRKENSALKECLTAYYNDPAFYEECKMEYLKEREEFRKTGIPTKKRLQKLPTSM [CMC1],-0.253,0.26
MALKAEGAALDCFEVTLKCEEGEDEEEAMVVAVIPRPEPMLRVTQQEKTPPPRPSPLEAGSDGCEEPKQQVSWEQEFLVGSSPGGSGRALCMVCGAEIRAPSADTARSHILEQHPHTLDLSPSEKSNILEAWSEGVALLQDVRAEQPSPPNSDSGQDAHPDPDANPDAARMPAEIVVLLDSEDNPSLPKRSRPRGLRPLELPAVPATEPGNKKPRGQRWKEPPGEEPVRKKRGRPMTKNLDPDPEPPSPDSPTETFAAPAEVRHFTDGSFPAGFVLQLFSHTQLRGPDSKDSPKDREVAEGGLPRAESPSPAPPPGLRGTLDLQVIRVRMEEPPAVSLLQDWSRHPQGTKRVGAGDTSDWPTVLSESSTTVAGKPEKGNGV [C11ORF84],0.38,0.023
MALLSRPALTLLLLLMAAVVRCQEQAQTTDWRATLKTIRNGVHKIDTYLNAALDLLGGEDGLCQYKCSDGSKPFPRYGYKPSPPNGCGSPLFGVHLNIGIPSLTKCCNQHDRCYETCGKSKNDCDEEFQYCLSKICRDVQKTLGLTQHVQACETTVELLFDSVIHLGCKPYLDSQRAACRCHYEEKTDL [PLA2G12A],-0.604,0.347
MALVRALVCCLLTAWHCRSGLGLPVAPAGGRNPPPAIGQFWHVTDLHLDPTYHITDDHTKVCASSKGANASNPGPFGDVLCDSPYQLILSAFDFIKNSGQEASFMIWTGDSPPHVPVPELSTDTVINVITNMTTTIQSLFPNLQVFPALGNHDYWPQDQLPVVTSKVYNAVANLWKPWLDEEAISTLRKGGFYSQKVTTNPNLRIISLNTNLYYGPNIMTLNKTDPANQFEWLESTLNNSQQNKEKVYIIAHVPVGYLPSSQNITAMREYYNEKLIDIFQKYSDVIAGQFYGHTHRDSIMVLSDKKGSPVNSLFVAPAVTPVKSVLEKQTNNPGIRLFQYDPRDYKLLDMLQYYLNLTEANLKGESIWKLEYILTQTYDIEDLQPESLYGLAKQFTILDSKQFIKYYNYFFVSYDSSVTCDKTCKAFQICAIMNLDNISYADCLKQLYIKHNY [SMPDL3A],0.322,0.18
MALVTVSRSPPGSGASTPVGPWDQAVQRRSRLQRRQSFAVLRGAVLGLQDGGDNDDAAEASSEPTEKAPSEEELHGDQTDFGQGSQSPQKQEEQRQHLHLMVQLLRPQDDIRLAAQLEAPRPPRLRYLLVVSTREGEGLSQDETVLLGVDFPDSSSPSCTLGLVLPLWSDTQVYLDGDGGFSVTSGGQSRIFKPISIQTMWATLQVLHQACEAALGSGLVPGGSALTWASHYQERLNSEQSCLNEWTAMADLESLRPPSAEPGGSSEQEQMEQAIRAELWKVLDVSDLESVTSKEIRQALELRLGLPLQQYRDFIDNQMLLLVAQRDRASRIFPHLYLGSEWNAANLEELQRNRVTHILNMAREIDNFYPERFTYHNVRLWDEESAQLLPHWKETHRFIEAARAQGTHVLVHCKMGVSRSAATVLAYAMKQYECSLEQALRHVQELRPIARPNPGFLRQLQIYQGILTASRQSHVWEQKVGGVSPEEHPAPEVSTPFPPLPPEPEGGGEEKVVGMEESQAAPKEEPGPRPRINLRGVMRSISLLEPSLELESTSETSDMPEVFSSHESSHEEPLQPFPQLARTKGGQQVDRGPQPALKSRQSVVTLQGSAVVANRTQAFQEQEQGQGQGQGEPCISSTPRFRKVVRQASVHDSGEEGEA [SSH3],0.212,-0.161
MANETQKVGAIHFPFPFTPYSIQEDFMAELYRVLEAGKIGIFESPTGTGKSLSLICGALSWLRDFEQKKREEEARLLETGTGPLHDEKDESLCLSSSCEGAAGTPRPAGEPAWVTQFVQKKEERDLVDRLKAEQARRKQREERLQQLQHRVQLKYAAKRLRQEEEERENLLRLSREMLETGPEAERLEQLESGEEELVLAEYESDEEKKVASRVDEDEDDLEEEHITKIYYCSRTHSQLAQFVHEVKKSPFGKDVRLVSLGSRQNLCVNEDVKSLGSVQLINDRCVDMQRSRHEKKKGAEEEKPKRRRQEKQAACPFYNHEQMGLLRDEALAEVKDMEQLLALGKEARACPYYGSRLAIPAAQLVVLPYQMLLHAATRQAAGIRLQDQVVIIDEAHNLIDTITGMHSVEVSGSQLCQAHSQLLQYVERYGKRLKAKNLMYLKQILYLLEKFVAVLGGNIKQNPNTQSLSQTGTELKTINDFLFQSQIDNINLFKVQRYCEKSMISRKLFGFTERYGAVFSSREQPKLAGFQQFLQSLQPRTTEALAAPADESQASTLRPASPLMHIQGFLAALTTANQDGRVILSRQGSLSQSTLKFLLLNPAVHFAQVVKECRAVVIAGGTMQPVSDFRQQLLACAGVEAERVVEFSCGHVIPPDNILPLVICSGISNQPLEFTFQKRELPQMMDEVGRILCNLCGVVPGGVVCFFPSYEYLRQVHAHWEKGGLLGRLAARKKIFQEPKSAHQVEQVLLAYSRCIQACGQERGQVTGALLLSVVGGKMSEGINFSDNLGRCVVMVGMPFPNIRSAELQEKMAYLDQTLSPRPGTPREGSGGEPVHEGRQPVHRQGHQAPEGFCQRSAPGPAICPAPCPGQAAGLDPSPCGGQSYLWPRHCCCAEVSPGEVGLFLMGNHTTAWRRALPLSCPLETVFVVGVVCGDPVTKVKPRRRVWSPECCQDPGTGVSSRRRKWGNPE [DDX11],-0.119,-0.0575
MAP3K1,-0.0921,-0.131
MAPALLLIPAALASFILAFGTGVEFVRFTSLRPLLGGIPESGGPDARQGWLAALQDRSILAPLAWDLGLLLLFVGQHSLMAAERVKAWTSRYFGVLQRSLYVACTALALQLVMRYWEPIPKGPVLWEARAEPWATWVPLLCFVLHVISWLLIFSILLVFDYAELMGLKQVYYHVLGLGEPLALKSPRALRLFSHLRHPVCVELLTVLWVVPTLGTDRLLLAFLLTLYLGLAHGLDQQDLRYLRAQLQRKLHLLSRPQDGEAE [NRM],-0.275,0.167
MAPDPWFSTYDSTCQIAQEIAEKIQQRNQYERKGEKAPKLTVTIRALLQNLKEKIALLKDLLLRAVSTHQITQLEGDRRQNLLDDLVTRERLLLASFKNEGAEPDLIRSSLMSEEAKRGAPNPWLFEEPEETRGLGFDEIRQQQQKIIQEQDAGLDALSSIISRQKQMGQEIGNELDEQNEIIDDLANLVENTDEKLRNETRRVNMVDRKSASCGMIMVILLLLVAIVVVAVWPTN [STX8],0.624,-0.0243
MAPVRRSAKWRPGGIEARGEGVSTVGYRNKNVRQKTWRPNHPQAFVGSVREGQGFAFRRKLKIQQSYKKLLRKEKKAQTSLESQFTDRYPDNLKHLYLAEEERHRKQARKVDHPLSEQVHQPLLEEQCSIDEPLFEDQCSFDQPQPEEQCIKTVNSFTIPKKNKKKTSNQKAQEEYEQIQAKRAAKKQEFERRKQEREEAQRQYKKKKMEVFKILNKKTKKGQPNLNVQMEYLLQKIQEKC [CCDC59],-0.512,0.278
MARLTKRRQADTKAIQHLWAAIEIIRNQKQIANIDRITKYMSRVHGMHPKETTRQLSLAVKDGLIVETLTVGCKGSKAGIEQEGYWLPGDEIDWETENHDWYCFECHLPGEVLICDLCFRVYHSKCLSDEFRLRDSSSPWQCPVCRSIKKKNTNKQEMGTYLRFIVSRMKERAIDLNKKGKDNKHPMYRRLVHSAVDVPTIQEKVNEGKYRSYEEFKADAQLLLHNTVIFYGADSEQADIARMLYKDTCHELDELQLCKNCFYLSNARPDNWFCYPCIPNHELVWAKMKGFGFWPAKVMQKEDNQVDVRFFGHHHQRAWIPSENIQDITVNIHRLHVKRSMGWKKACDELELHQRFLREGRFWKSKNEDRGEEEAESSISSTSNEQLKVTQEPRAKKGRRNQSVEPKKEEPEPETEAVSSSQEIPTMPQPIEKVSVSTQTKKLSASSPRMLHRSTQTTNDGVCQSMCHDKYTKIFNDFKDRMKSDHKRETERVVREALEKLRSEMEEEKRQAVNKAVANMQGEMDRKCKQVKEKCKEEFVEEIKKLATQHKQLISQTKKKQWCYNCEEEAMYHCCWNTSYCSIKCQQEHWHAEHKRTCRRKR [ZMYND11],-2.1,0.83
MARTLEPLAKKIFKGVLVAELVGVFGAYFLFSKMHTSQDFRQTMSKKYPFILEVYYKSTEKSGMYGIRELDQKTWLNSKN [CEBPZOS],-0.306,-0.012
MASASARGNQDKDAHFPPPSKQSLLFCPKSKLHIHRAEISKIMRECQEESFWKRALPFSLVSMLVTQGLVYQGYLAANSRFGSLPKVALAGLLGFGLGKVSYIGVCQSKFHFFEDQLRGAGFGPQHNRHCLLTCEECKIKHGLSEKGDSQPSAS [OCIAD2],0.0856,-0.0442
MASKRKSTTPCMIPVKTVVLQDASMEAQPAETLPEGPQQDLPPEASAASSEAAQNPSSTDGSTLANGHRSTLDGYLYSCKYCDFRSHDMTQFVGHMNSEHTDFNKDPTFVCSGCSFLAKTPEGLSLHNATCHSGEASFVWNVAKPDNHVVVEQSIPESTSTPDLAGEPSAEGADGQAEIIITKTPIMKIMKGKAEAKKIHTLKENVPSQPVGEALPKLSTGEMEVREGDHSFINGAVPVSQASASSAKNPHAANGPLIGTVPVLPAGIAQFLSLQQQPPVHAQHHVHQPLPTAKALPKVMIPLSSIPTYNAAMDSNSFLKNSFHKFPYPTKAELCYLTVVTKYPEEQLKIWFTAQRLKQGISWSPEEIEDARKKMFNTVIQSVPQPTITVLNTPLVASAGNVQHLIQAALPGHVVGQPEGTGGGLLVTQPLMANGLQATSSPLPLTVTSVPKQPGVAPINTVCSNTTSAVKVVNAAQSLLTACPSITSQAFLDASIYKNKKSHEQLSALKGSFCRNQFPGQSEVEHLTKVTGLSTREVRKWFSDRRYHCRNLKGSRAMIPGDHSSIIIDSVPEVSFSPSSKVPEVTCIPTTATLATHPSAKRQSWHQTPDFTPTKYKERAPEQLRALESSFAQNPLPLDEELDRLRSETKMTRREIDSWFSERRKKVNAEETKKAEENASQEEEEAAEDEGGEEDLASELRVSGENGSLEMPSSHILAERKVSPIKINLKNLRVTEANGRNEIPGLGACDPEDDESNKLAEQLPGKVSCKKTAQQRHLLRQLFVQTQWPSNQDYDSIMAQTGLPRPEVVRWFGDSRYALKNGQLKWYEDYKRGNFPPGLLVIAPGNRELLQDYYMTHKMLYEEDLQNLCDKTQMSSQQVKQWFAEKMGEETRAVADTGSEDQGPGTGELTAVHKGMGDTYSEVSENSESWEPRVPEASSEPFDTSSPQAGRQLETD [ZHX3],0.105,-0.0607
MASNFKKANMASSSQRKRMSPKPELTEEQKQEIREAFDLFDADGTGTIDVKELKVAMRALGFEPKKEEIKKMISEIDKEGTGKMNFGDFLTVMTQKMSEKDTKEEILKAFKLFDDDETGKISFKNLKRVAKELGENLTDEELQEMIDEADRDGDGEVSEQEFLRIMKKTSLY [CETN2],0.117,0.68
